First the molecules themselves.
B1: monoclonal anti-PDGF-CC antibody 6B3 (antibody, V domains shown)
VH: QVQLQQSGVEVARPGASVKLSCKASGYTFRSYGITWVRQRTGQGLEWIGEIYPRSGKTYYNEKFKGKATLTADTSSSTVYMELRSLTSEDSAVYFCAREGYGYDGGYFDYWGQGTTLTVSS
VL: DIVMTQSPSSLAMSVGQKVTMSCKSSQSLLNSRNQKNYLAWYQQKPGQSPKLLVYFASTRESGVPDRFTGSGSGTDFTLTISSVQAEDLAVYYCQQHYSTPLTFGAGTKLELK
B2: monoclonal anti-PDGF-CC antibody 19C7 (antibody, V domains shown)
VH: QVQLQQSGVEVARPGASVKLSCKASGYTFRSYGITWVRQRTGQGLEWIGEIYPRSGKTYYNEKFKGKATLTADTSSSTVYMELRSLTSEDSAVYFCAREGYGYDGGYFDYWGQGTTLTVSS
VL: DIVMTQSPSSLAMSVGQKVTMSCKSSQSLLNSRNQKNYLAWYQQKPGQSPKLLVYFASTRESGVPDRFTGSGSGTDFTLTISSVQAEDLAVYYCQQHYSTPLTFGAGTKLELK
B3: monoclonal anti-PDGF-CC antibody 11F5 (antibody, V domains shown)
VH: QVQLQQSGAELARPGASVKLSCKASGYIFISYGISWVKQRTGQGLEWIGEIYPRSGKTYYNEKFKDKAALTADKSSSIAYMELRSLTSEDSAVYFCAREGYGYDGGYFDYWGQGTILTVSS
VL: DIVMTQSPSSLAMSVGQKVAVSCKSSQSLLNSSNQKNYLAWYQQKPGQSPKLLVYFASTRDSGVPDRFTGSGSGTDFTLTISSVQAEDLAVYYCQQHYSTPLTFGAGTKLELK

This assay concerns the target T1, recombinant human PDGF-CC core domain protein (activated PDGF-CC, growth factor domain) (human, UniProt Q9NRA1 230-345).
T1 chain: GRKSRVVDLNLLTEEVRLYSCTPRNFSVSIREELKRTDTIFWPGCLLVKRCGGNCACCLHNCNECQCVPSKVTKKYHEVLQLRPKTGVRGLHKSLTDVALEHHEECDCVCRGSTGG
As to the kind of experiment: SPR.
Turning to B1, the koff turned out to be 0.0015 s⁻¹. As to B2, the koff came to 0.0016 s⁻¹. In the case of B3 it was 0.00058 s⁻¹.

The koff is the first-order rate constant of dissociation.

These data come from publication PMC6063412 (2018).
